The source of these data is PMC5500849, “Cobamide-mediated enzymatic reductive dehalogenation via long-range electron transfer” (Nature Communications, 2017).

Substrate in data set [1]: Oc1ccc(Br)cc1
Briefly: purified protein. Particulars: reduced methyl viologen 0.5 mM / Ti(III) citrate 1.4 mM, 100 mM Tris-HCl pH 7.5, 22 °C, no NH4+, kcat at Table 1.

Substrate in data set [2]: Oc1ccc(Br)cc1Br
Briefly: purified protein. Particulars: reduced methyl viologen 0.5 mM / Ti(III) citrate 1.4 mM, 100 mM Tris-HCl pH 7.5, 22 °C, no NH4+, kcat at Table 1, kcat includes further reduction to phenol.

By Km is commonly meant the concentration of substrate that gives half-maximal velocity. A word on the kcat: it is the maximal rate divided by the concentration of active sites.

B1: PceA (PceA–Strep) (Sulfurospirillum multivorans) (protein)
chain: AEKEKNAAEIRQQFAMTAGSPIIVNDKLERYAEVRTAFTHPTSFFKPNYKGEVKPWFLSAYDEKVRQIENGENGPKMKAKNVGEARAGRALEAAGWTLDINYGNIYPNRFFMLWSGETMTNTQLWAPVGLDRRPPDTTDPVELTNYVKFAARMAGADLVGVARLNRNWVYSEAVTIPADVPYEQSLHKEIEKPIVFKDVPLPIETDDELIIPNTCENVIVAGIAMNREMMQTAPNSMACATTAFCYSRMCMFDMWLCQFIRYMGYYAIPSCNGVGQSVAFAVEAGLGQASRMGACITPEFGPNVRLTKVFTNMPLVPDKPIDFGVTEFCETCKKCARECPSKAITEGPRTFEGRSIHNQSGKLQWQNDYNKCLGYWPESGGYCGVCVAVCPFTKGNIWIHDGVEWLIDNTRFLDPLMLGMDDALGYGAKRNITEVWDGKINTYGLDADHFRDTVSFRKDRVKKS
In the case of B1, in “purified protein [1]”, the Km is 99 µM and the kcat is 809 s⁻¹. Besides, in the data set “purified protein [2]”, the Km worked out at 95 µM and the kcat stood at 252 s⁻¹.
